Paper PMC10319729 (2023)

T1: LGR5ΔCT (human LGR5 without the cytoplasmic C-terminal tail) on HEK293 cells (human, UniProt O75473 22-907)
T1 chain: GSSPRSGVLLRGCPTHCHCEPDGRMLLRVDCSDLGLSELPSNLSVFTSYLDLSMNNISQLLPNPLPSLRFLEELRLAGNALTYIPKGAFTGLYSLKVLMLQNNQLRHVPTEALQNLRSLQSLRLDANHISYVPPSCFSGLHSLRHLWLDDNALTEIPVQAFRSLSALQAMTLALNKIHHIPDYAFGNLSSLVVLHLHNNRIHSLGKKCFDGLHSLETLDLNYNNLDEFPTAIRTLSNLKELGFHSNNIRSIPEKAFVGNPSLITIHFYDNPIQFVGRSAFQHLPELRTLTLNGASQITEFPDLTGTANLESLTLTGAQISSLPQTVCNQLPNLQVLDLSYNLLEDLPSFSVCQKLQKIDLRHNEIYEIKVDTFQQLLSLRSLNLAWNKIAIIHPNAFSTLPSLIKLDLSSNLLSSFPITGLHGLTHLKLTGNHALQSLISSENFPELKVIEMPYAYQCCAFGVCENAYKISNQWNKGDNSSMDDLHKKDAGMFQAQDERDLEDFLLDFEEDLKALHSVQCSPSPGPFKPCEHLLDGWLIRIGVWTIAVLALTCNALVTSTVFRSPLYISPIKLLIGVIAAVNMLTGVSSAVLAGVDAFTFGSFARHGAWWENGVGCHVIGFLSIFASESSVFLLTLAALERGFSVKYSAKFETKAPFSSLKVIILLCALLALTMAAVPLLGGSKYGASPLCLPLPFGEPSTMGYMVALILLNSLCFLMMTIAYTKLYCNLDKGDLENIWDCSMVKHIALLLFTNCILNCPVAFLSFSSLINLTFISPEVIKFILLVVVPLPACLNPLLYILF


Assays:
[1] = target: T1, LGR5ΔCT (human LGR5 without the …)
[2] = target: LGR4 (HA-LGR4) over-expressed on HEK293 cells (UniProt Q9BXB1 25-951)

Kd [1] | Kd [2] | Binder
2.3 nM |  | R2Fu-mFc (RSPO2 furin domain fused to monomeric human IgG4-Fc, monovalent) (Fc fusion) NPICKGCLSCSKDNGCSRCQQKLFFFLRREGMRQYGECLHSCPSGYYGHRAPDMNRCARCRIENCDSCFSKDFCTKCKVGFYLHRGRCFDECPDGFAPLEETMECVE
1.8 nM | 9 nM | R2Fu-bFc (RSPO2 furin domain fused to wild-type IgG1-Fc, bivalent) (Fc fusion) NPICKGCLSCSKDNGCSRCQQKLFFFLRREGMRQYGECLHSCPSGYYGHRAPDMNRCARCRIENCDSCFSKDFCTKCKVGFYLHRGRCFDECPDGFAPLEETMECVE
